# Measurements published in the supplement of paper PMC9112550, “Optimization of the antimicrobial peptide Bac7 by deep mutational scanning” (BMC Biology, 2022).
# Test system: Escherichia coli TOP10
# Test: shrunken log2 fold change of peptide-encoding DNA abundance (4.5 h post-induction vs induction); higher = less antimicrobial activity (less host growth inhibition)
# Details: time post-induction: 4.5 h; library: site-saturation at positions 5, 18, 19, 20
# 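Also: peptides expressed intracellularly from a pBAD plasmid library in pooled LB shake-flask culture, induced with 0.3% L-arabinose, DNA abundance read by NGS, three biological replicates, DESeq2 with apeglm shrinkage.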
row,Sequence,shrunken log2 fold change
1,RRIRMRPPRLPRPRPRPMHFPRP,-0.0157
2,RRIRGRPPRLPRPRPRPDTNPRP,0.199
3,RRIRARPPRLPRPRPRPQLCPRP,0.249
4,RRIRHRPPRLPRPRPRPNYRPRP,-0.103
5,RRIRHRPPRLPRPRPRPAVIPRP,-0.0639
6,RRIRARPPRLPRPRPRPFILPRP,-0.39
7,RRIRIRPPRLPRPRPRPHSLPRP,0.0644
8,RRIRCRPPRLPRPRPRPDVKPRP,-0.153
9,RRIRKRPPRLPRPRPRPDLNPRP,0.332
10,RRIRIRPPRLPRPRPRPMAVPRP,0.142
11,RRIRSRPPRLPRPRPRPKKRPRP,0.716
12,RRIRGRPPRLPRPRPRPHTQPRP,0.0483
13,RRIRDRPPRLPRPRPRPQPGPRP,0.237
14,RRIRGRPPRLPRPRPRPAFGPRP,0.476
15,RRIRYRPPRLPRPRPRPACQPRP,-0.142
16,RRIRIRPPRLPRPRPRPTPNPRP,-0.0265
17,RRIRARPPRLPRPRPRPMYPPRP,-0.79
18,RRIRMRPPRLPRPRPRPEVPPRP,1.33
19,RRIRIRPPRLPRPRPRPIPTPRP,-0.0342
20,RRIRPRPPRLPRPRPRPGYKPRP,-0.141

row,Sequence,shrunken log2 fold change
1,RRIRYRPPRLPRPRPRPDCFPRP,-0.0906
2,RRIRNRPPRLPRPRPRPCYNPRP,-0.124
3,RRIRWRPPRLPRPRPRPYMTPRP,-0.877
4,RRIRHRPPRLPRPRPRPTMYPRP,0.000437
5,RRIRIRPPRLPRPRPRPDNRPRP,-0.00277
6,RRIRNRPPRLPRPRPRPQFVPRP,-0.0944
7,RRIRNRPPRLPRPRPRPPHNPRP,0.216
8,RRIRIRPPRLPRPRPRPIWKPRP,-0.0131
9,RRIRKRPPRLPRPRPRPEPMPRP,0.504
10,RRIRLRPPRLPRPRPRPFDVPRP,-0.0798
11,RRIRGRPPRLPRPRPRPKMTPRP,1.83
12,RRIRPRPPRLPRPRPRPNALPRP,0.0933
13,RRIRGRPPRLPRPRPRPQEYPRP,-0.00348
14,RRIRTRPPRLPRPRPRPAYRPRP,-0.111
15,RRIRPRPPRLPRPRPRPPGSPRP,0.0805
16,RRIRCRPPRLPRPRPRPSHRPRP,-0.508
17,RRIRTRPPRLPRPRPRPAYNPRP,-0.355
18,RRIRTRPPRLPRPRPRPSSTPRP,-0.604
19,RRIRIRPPRLPRPRPRPNYDPRP,-0.638
20,RRIRDRPPRLPRPRPRPKFIPRP,-0.14

row,Sequence,shrunken log2 fold change
1,RRIRCRPPRLPRPRPRPIPAPRP,0.0747
2,RRIRDRPPRLPRPRPRPKHEPRP,0.134
3,RRIRIRPPRLPRPRPRPQLGPRP,-0.0971
4,RRIRRRPPRLPRPRPRPPPCPRP,0.864
5,RRIRNRPPRLPRPRPRPPKHPRP,0.157
6,RRIRIRPPRLPRPRPRPMKMPRP,-0.127
7,RRIRFRPPRLPRPRPRPSQLPRP,-0.462
8,RRIRHRPPRLPRPRPRPANLPRP,-0.00674
9,RRIRIRPPRLPRPRPRPYIWPRP,-0.0625
10,RRIRTRPPRLPRPRPRPWPRPRP,0.116
11,RRIRARPPRLPRPRPRPIMDPRP,-0.0229
12,RRIRIRPPRLPRPRPRPGWVPRP,0.28
13,RRIRGRPPRLPRPRPRPGAKPRP,0.924
14,RRIRRRPPRLPRPRPRPHLSPRP,0.112
15,RRIRERPPRLPRPRPRPIFCPRP,0.0456
16,RRIRGRPPRLPRPRPRPSFQPRP,0.198
17,RRIRKRPPRLPRPRPRPNFQPRP,0.287
18,RRIRFRPPRLPRPRPRPLNNPRP,-0.767
19,RRIRPRPPRLPRPRPRPVWPPRP,0.341
20,RRIRTRPPRLPRPRPRPQMYPRP,-0.148
